Source: the nanobody polyreactivity screen of Harvey et al. (2022)

Assay: yeast display, Sf9 membrane polyspecificity reagent, FACS + sequencing; frameworks hold sequencing errors
Summary of the method: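 After 36–48 hours of galactose induction, yeast (Saccharomyces cerevisiae BJ5465) displaying a synthetic nanobody library were stained at 4 °C for 1 hour with 10% biotinylated, detergent-solubilized Sf9 membrane reagent. Streptavidin microbeads enriched the stained cells before FACS sorting into low and high (top ~1%) gates on anti-HA and streptavidin fluorescence. Each clone's polyreactivity label reflects its gate of origin.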

With “QVQLVESGGGLVQAGGSLRLSCAASGSTSTSNAMGWYRQAPGKERELVAVISSGGSTYYADSVKGRFTISRDNAKNTVYLQMNSLKPEDTAVYYCSADARIHWFVVRYEYWGQGTQVTVSS” the “polyreactivity (PSR sort gate)” value was “low polyreactivity”.
With “QVQLVESGGGLVQAGGSLRLSCAASGSTSTYYAMGWYRQAPGKERELVAAITLGAGRKYADSVKGRFTISRDNAKNTVYLQMNSLKPEDTAVYYCAADSHIDHGKWAYDYWGQGTQVTVSS” the “polyreactivity (PSR sort gate)” value was “low polyreactivity”.
For “QVQLVESGGGLVQAGGSLRLSCAASGSTSWSNARGWYRQAPGKERELLAAITTGASTYYADSVKGRFTMSRDNAKNTVYYQMNSLKPEDTAVYYCAADPWVLWSYYYWGQGTQVTVSS”, the “polyreactivity (PSR sort gate)” value was “low polyreactivity”.
For “QVQLVESGGGLVQAGGSLRLSCAASGSTSWYDMGWYRQPPGKERELVASISSGDSTNYADSVKGRFTISRDNAKNTVYLQMNSLKPDDTAVYYCAADFNVGFVWGDDSDYWGQGTQVTVSS”, the “polyreactivity (PSR sort gate)” value was “low polyreactivity”.
With “QVQLVESGGGLVQAGGSLRLSCAASGSTSYDNAMGWYRQAPGKERELVASISSDGSTNYADSVKGRFTISRDNAKNTVYLQMNSLKPEDTAVYYCNVEVTRGLSHDPEYDYWGQGTQVTVSS” the “polyreactivity (PSR sort gate)” value was “low polyreactivity”.
With “QVQLVESGGGLVQAGGSLRLSCAASGSTSYGYAMGWYRQAPGKERELVAAISYSGSSTYYADSVKGRFTISRDNAKNTVYLQMNSLKPEDTAVYYCNAKVYPGVGPKHRYDYWGQGTQVTVSS” the “polyreactivity (PSR sort gate)” value was “low polyreactivity”.
In the case of “QVQLVESGGGLVQAGGSLRLSCAASGSTSYLYAMGWYRQAPGKERELVATITTRSGSTYYADSVKGRFTISRDNAKNTVYLQINSLKPEDTAVYYCAARWISVLSEGAEHDYWGQGTQVTVSS”, the “polyreactivity (PSR sort gate)” value is reported as “low polyreactivity”.
For “QVQLVESGGGLVQAGGSLRLSCAASGSTSYVYAMGWYRQAPGKERELVAANSGSGGRTYYADSVKGRFTISRDNAKNTVYLQMNSLKPEDTAVYYCNALTRPSYPFDYWGLGTQVTVSS”, the “polyreactivity (PSR sort gate)” value was “high polyreactivity”.
In the case of “QVQLVESGGGLVQAGGSLRLSCAASGSTVENNVMGWYRQAPGQERELVATITWGDGSTSYADSVKGRFTISRDNAKNTVYLKMNSLKTEVTAVYYCDAVDRIGYGKNQDHDYWGQGTQVTVSS”, the “polyreactivity (PSR sort gate)” value is reported as “low polyreactivity”.
In the case of “QVQLVESGGGLVQAGGSLRLSCAASGSTVGAYAMGWYRQAPGKERELVAAISYSGGSTYYADSVKGRFTISRDNAKNSVYLQMNSLKPEDSAVYYCAAGTKYTSAVHFFYWGQGTQVTVSS”, the “polyreactivity (PSR sort gate)” value is reported as “high polyreactivity”.
With “QVQLVESGGGLVQAGGSLRLSCAASGSTVINYAMGWYRHAPGKERELVATLTSDGRTYYADSVKGRCTISRDNAKNTVYLQMISLKPEDTAVYSCAKSYGGVTEYDYWGQGTQVTVSS” the “polyreactivity (PSR sort gate)” value was “low polyreactivity”.
For “QVQLVESGGGLVQAGGSLRLSCAASGSTVKRNAMGWYRQAPGKERELVAAITQSGGSTYYADSVKGRFTISRHNAKNTVYLQMNSLKPEDTAVYYCAASDFRGRRYDYWGQGTQVTVSS”, the “polyreactivity (PSR sort gate)” value was “high polyreactivity”.
With “QVQLVESGGGLVQAGGSLRLSCAASGSTVRRYAMGWYRQAPGKERELVAAISWSGGSTYYADSVKGRFTISRDNAKNTGYLQMNSLKPEDTAVYYCAARGVTSYWQDYDYWGQGTQLTVSS” the “polyreactivity (PSR sort gate)” value was “low polyreactivity”.
For “QVQLVESGGGLVQAGGSLRLSCAASGSTVSNYAMGWYRQAPGKERELVASISNGGSTNDADSVKGRFTISRANAKNTGYLQMNSLKPEDTAVYYCNAESKAKYDYWGQGTQVTLSS”, the “polyreactivity (PSR sort gate)” value was “low polyreactivity”.
With “QVQLVESGGGLVQAGGSLRLSCAASGSTVVIKAMGWYRQAPGKERELVARISSSGGRTYYADSVKGRFTISRDNAKNTVYLQMNSLKPEDTAVYYCAKRGYLFLRGSVRVGYNYWGQGTQVTVSS” the “polyreactivity (PSR sort gate)” value was “low polyreactivity”.
In the case of “QVQLVESGGGLVQAGGSLRLSCAASGSTVYHYAMGWNRQAPGKERELVAAISFSGGRTSYADSVKGRFTISRDNAKNTVDLQMNSLKPEDTAGYYCAAKYIRFARSRDYWGHGTQVTVSS”, the “polyreactivity (PSR sort gate)” value is reported as “high polyreactivity”.
For “QVQLVESGGGLVQAGGSLRLSCAASGSTYALNAMGWYRQAPGKDRDLVDAISRRGGSTYYADSVKGRFTISRDNAKNTVYLQMNSLKPEDTAVYYCAARNQSQRTGYDFWGQGTQVTVSS”, the “polyreactivity (PSR sort gate)” value was “high polyreactivity”.
In the case of “QVQLVESGGGLVQAGGSLRLSCAASGSTYAYYAMGWYRQATGKERELVAAISLSSGCTYYADSVKGRFTISRDKAKNTVYLQMNSLKPEDTAVYYCAADFASDSSRYEYWGQGTQVTVSS”, the “polyreactivity (PSR sort gate)” value is reported as “low polyreactivity”.
With “QVQLVESGGGLVQAGGSLRLSCAASGSTYHKDAMAWYRQAPGKERELVAAISNGGRTYYADSVKGRFTISRDNAKNTVYLKRNSLKPEATAVYYCAAVPRRGWDIRRYDSWGQGTQVTVSS” the “polyreactivity (PSR sort gate)” value was “high polyreactivity”.
In the case of “QVQLVESGGGLVQAGGSLRLSCAASGSTYLINAMGWYRQAPGNERELVAAISDSGGSTHYADSVKGRFTISRDHAINTVYLHMKSLNPEDTAVYYCAATIPTTLILYGYWGQGTQVTVSS”, the “polyreactivity (PSR sort gate)” value is reported as “low polyreactivity”.
For “QVQLVESGGGLVQAGGSLRLSCAASGSTYNINAMGWYRQAPGKERELVAAISWSGGSTYYADSVKGRFTISRDNAKNTVYLQMNSLKPEDTAVYYCNALWVWYRGSSVRWVGGYDYWGQGTQVTVSS”, the “polyreactivity (PSR sort gate)” value was “high polyreactivity”.
In the case of “QVQLVESGGGLVQAGGSLRLSCAASGSTYPYAMGWYRQAPGKERELVAAIRWRGGSTKYADSVKGRFTISRDNAKNTVYLQMNSLKPEDTAVYYCARRWYYVLHGYWGQGTQVTVSS”, the “polyreactivity (PSR sort gate)” value is reported as “high polyreactivity”.
With “QVQLVESGGGLVQAGGSLRLSCAASGSTYPYYAMGWYRQAPGKERELVAAITSGGSTNYADSVKGRFTISRDNAKNTVYLQMNSLKPEDTAVYYCNADSSGWFPFDYWGQGTQVTVSS” the “polyreactivity (PSR sort gate)” value was “low polyreactivity”.
In the case of “QVQLVESGGGLVQAGGSLRLSCAASGSTYRTYAMGWYRPAPGKERELVAAISSSGGSTYYADSVKGRFTISRDNAKNTVYLQMNSLKPEYTAVYYCNAGRSHRPHYDYWGQGTQVTVSS”, the “polyreactivity (PSR sort gate)” value is reported as “high polyreactivity”.
For “QVQLVESGGGLVQAGGSLRLSCAASGSTYRYTMGWYRQAPGKERELVAAITGSAGRTYYADSVKGRFTISRDNAKNTVYLQMNSLKPEDTAVYYCNKVRPRKFWDYYYWGQGTQVTVSS”, the “polyreactivity (PSR sort gate)” value was “high polyreactivity”.
With “QVQLVESGGGLVQAGGSLRLSCAASGSTYRYYAMGWYRQAPGKERELVAGISWSGTSTYYADSVKGRFTISRDNANNTVYLQMNSLKPEDTAVYYSNVVWWSRYGTTYKYDYWGQGTQVTVSS” the “polyreactivity (PSR sort gate)” value was “high polyreactivity”.
For “QVQLVESGGGLVQAGGSLRLSCAASGSTYSWYVMGWYRQAPGKERELVAAISYRGGRTYYADSVKGRFTISRDNAKNTVYLQMNSLKPEDTAVYYCAARGVVDAGRTNRPYDYWGQGTQVTVSS”, the “polyreactivity (PSR sort gate)” value was “low polyreactivity”.
For “QVQLVESGGGLVQAGGSLRLSCAASGSTYVYYAMGWYRQAPGKERELVAAISSSGGSTYYADSVKGRFTISRDNAKNTVYLQMNILKPEDTAVYYCNRYSSYIPYPYNYWGQGTQVTVSS”, the “polyreactivity (PSR sort gate)” value was “high polyreactivity”.
In the case of “QVQLVESGGGLVQAGGSLRLSCAASGSTYWNAMGWYRQAPGKERELVAAITFRGGSTYADSVKGRFTISRDNAKNTVYLQMNSLKPEDTAVYYCAKASSHRWYNVRNRAGYDYWGQGTQVTVSS”, the “polyreactivity (PSR sort gate)” value is reported as “high polyreactivity”.
In the case of “QVQLVESGGGLVQAGGSLRLSCAASGSTYYAYAMGWYRQAPGKEREFVAAISSGGGSTYYADSVKGRFTISRDNAKNTVYLQMNSLKPVDTAVYYCAAVLYYYWRGYGPRSNRYDYWGQGTQVTVSS”, the “polyreactivity (PSR sort gate)” value is reported as “high polyreactivity”.
For “QVQLVESGGGLVQAGGSLRLSCAASGSTYYFYPMGSYRQAPGKERELVAAISFTDTSTYYADSVQGRFTISRDNAKNTVYLQMNSLKPEDTAVYYCAARYAGGYYYWGQGTQVTVSS”, the “polyreactivity (PSR sort gate)” value was “high polyreactivity”.
In the case of “QVQLVESGGGLVQAGGSLRLSCAASGSTYYNALGWYRPAPGKERELVAAIRFRSGSTYYADSVKGRFTISRDNAKNTDYVQMNSLKPEDTAVYYCAADNKRSWRYAYNYWGQGTQVTVSS”, the “polyreactivity (PSR sort gate)” value is reported as “high polyreactivity”.
